Here are results for four substances from publication PMC3724804.

For test [1], the target named is human cytoplasmic β-actin (human) (UniProt P60709).
In test [2] the target is skeletal muscle α-actin (rabbit) (UniProt P68135).
Test [3] deals with human cytoplasmic γ-actin (human) (UniProt P63261).
Test [4] deals with human cytoplasmic β-actin (human) (UniProt P60709). This is another data set of the same source.
Test [5] addresses skeletal muscle α-actin (rabbit) (UniProt P68135). This is another data set of the same source.
Test [6] concerns the target human cytoplasmic γ-actin (human) (UniProt P63261). This is another data set of the same source.
Test [7] shares this target. This is another data set of the same source.

“human myosin-7A motor domain construct (amino acids 1–747) fused with the artificial lever arm and EYFP (from UniProt Q13402 1-747) (domain or fragment)”: the K (app,actin): F-actin concentration for half-maximal activation of steady-state ATPase (NADH-coupled assay, 25°C) in test [1] was 12.3 µM; in test [2] it was 12.3 µM; in test [3], 11.3 µM. Also, the kcat of actin-activated steady-state ATPase in test [1] was found to be 0.53 s⁻¹; in test [2], 0.35 s⁻¹; in test [3], 0.75 s⁻¹.

For the substance “human nonmuscle myosin-2A motor domain (residues 1–775) fused with two Dictyostelium discoideum α-actinin repeats (from UniProt P35579 1-775) (domain or fragment)”, the K (app,actin): F-actin concentration for half-maximal activation of steady-state ATPase (NADH-coupled assay, 25°C) in test [1] was determined as 94.6 µM; in test [2] it was 80.2 µM; in test [3], 88 µM. In addition, the kcat of actin-activated steady-state ATPase in test [1] turned out to be 0.81 s⁻¹; in test [2] it was 0.18 s⁻¹; in test [3], 0.77 s⁻¹. The Motility rate: sliding velocity of tropomyosin-decorated F-actin in the in vitro motility assay, 30°C was determined as 84.2 nm/s in test [4], 76.3 nm/s in test [5] and 94.6 nm/s in test [6].

For “human nonmuscle myosin-2B motor domain (residues 1–782) fused with two Dictyostelium discoideum α-actinin repeats (from UniProt P35580 1-782) (domain or fragment)”, the K (app,actin): F-actin concentration for half-maximal activation of steady-state ATPase (NADH-coupled assay, 25°C) was found to be 95.1 µM in test [1], 82 µM in test [2] and 86.9 µM in test [3]. Also, the kcat of actin-activated steady-state ATPase in test [1] amounted to 0.67 s⁻¹; in test [2], 0.15 s⁻¹; in test [3], 0.63 s⁻¹. This substance yielded an ATP turnover in the flash photolysis experiment (5 µM F-actin), relative to α-actin in test [7] of 3 fold. The Motility rate: sliding velocity of tropomyosin-decorated F-actin in the in vitro motility assay, 30°C in test [4] is 35.2 nm/s; in test [5], 30.1 nm/s; in test [6] it was 32.7 nm/s.

For the substance “human nonmuscle myosin-2C1 splice variant motor domain (residues 1–807) fused with two Dictyostelium discoideum α-actinin repeats (domain or fragment)”, the K (app,actin): F-actin concentration for half-maximal activation of steady-state ATPase (NADH-coupled assay, 25°C) in test [1], in test [2] and in test [3] was > 100 µM in each case. The kcat of actin-activated steady-state ATPase (activity in the presence of 100 µM F-actin) in test [1] amounted to 0.53 s⁻¹; in test [2], 0.17 s⁻¹; in test [3], 0.36 s⁻¹. For the same substance, the Motility rate: sliding velocity of tropomyosin-decorated F-actin in the in vitro motility assay, 30°C in test [4] was 60.9 nm/s; in test [5], 51.7 nm/s; in test [6], 61.2 nm/s.
